Experimental data as given in patent US20080207498A1, “Methods for Treating Alzheimer's Disease” (priority 2005, published 2008).
No end group written: not given here.

Key:
[1] = biological target: Preformed immune complex of peroxidase and rabbit anti-peroxidase IgG (PAP complex) (horseradish) (UniProt P00433); experiment: competition reverse ELISA: PAP pre-incubated with peptide, residual PAP binding to FcγIIa-coated plate
[2] = biological target: Preformed immune complex of peroxidase and rabbit anti-peroxidase IgG (PAP complex) (horseradish) (UniProt P00433); experiment: competition reverse ELISA: PAP pre-incubated with peptide, residual PAP binding to C1q-coated plate
[3] = biological target: Preformed immune complex of peroxidase and rabbit anti-peroxidase IgG (PAP complex) (horseradish) (UniProt P00433); experiment: competition reverse ELISA: PAP pre-incubated with peptide, residual PAP binding to FcγIII-coated plate
[4] = biological target: Preformed immune complex of peroxidase and rabbit anti-peroxidase IgG (PAP complex) (horseradish) (UniProt P00433); experiment: competition reverse ELISA: PAP pre-incubated with peptide, residual PAP binding to FcγIIb-coated plate
[5] = biological target: Preformed immune complex of peroxidase and rabbit anti-peroxidase IgG (PAP complex) (horseradish) (UniProt P00433); experiment: competition reverse ELISA: PAP pre-incubated with peptide, residual PAP binding to plate coated with human wt tau
[6] = biological target: Preformed immune complex of peroxidase and rabbit anti-peroxidase IgG (PAP complex) (horseradish) (UniProt P00433); experiment: competition reverse ELISA: PAP pre-incubated with peptide, residual PAP binding to plate coated with human wt β amyloid peptide 1-40

Chain of Preformed immune complex of peroxidase and rabbit anti-peroxidase IgG (PAP complex) (horseradish) (P00433 31-338, one chain of several): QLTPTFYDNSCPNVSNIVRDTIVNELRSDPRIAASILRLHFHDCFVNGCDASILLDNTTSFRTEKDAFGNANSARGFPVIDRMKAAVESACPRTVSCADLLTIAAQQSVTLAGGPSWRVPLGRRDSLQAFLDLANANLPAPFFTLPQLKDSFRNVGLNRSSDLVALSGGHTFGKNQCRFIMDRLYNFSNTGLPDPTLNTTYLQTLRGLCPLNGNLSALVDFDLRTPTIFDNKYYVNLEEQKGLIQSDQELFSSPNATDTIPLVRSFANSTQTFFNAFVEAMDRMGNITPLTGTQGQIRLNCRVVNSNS

Binder	OD 405 nm [1] [OD]	OD 405 nm [2] [OD]	OD 405 nm [3] [OD]	OD 405 nm [4] [OD]	OD 405 nm [5] [OD]	OD 405 nm [6] [OD]
DCAFHLGELVWCT [Peptide … (SEQ ID NO:3)]	0.66	0.859	0.81	0.51	–	–
APPCAFHLGELVWCT (not fully specified; cysteine pairing not given here) [Peptide … (SEQ ID NO:15)]	0.605	0.983	0.88	0.38	–	–
APPDCAWHLGELVWCT [Peptide … (SEQ ID NO:16)]	0.509	0.389	0.67	0.496	0.059	0.885
APPCARHLGELVWCT (not fully specified; cysteine pairing not given here) [Peptide … (SEQ ID NO:14)]	0.956	0.567	0.709	0.768	–	–
APPCAWHLGELVWCT (not fully specified; cysteine pairing not given here) [Peptide … (SEQ ID NO:13)]	0.658	1.15	0.53	0.562	–	–
